Laboratory results: PMC11724247

Key:
[1] = target: recombinant cynomolgus FcεRIα (cynomolgus monkey (Macaca fascicularis)); experiment: SPR
[2] = target: recombinant human FcεRIα (human) (UniProt P12319); experiment: SPR

Kd [1]	Kd [2]	Substance
1.4 nM	6.73 pM	recombinant cynomolgus IgE Fc (Cε1-4) (domain or fragment)
1 nM	8.39 pM	recombinant human IgE (antibody)
